The target of the assay is human CD30 expressed on human peripheral blood eosinophils (human) (UniProt P28908). The assay is described as follows: cell-based or functional assay.
UniProt P28908, sequence (P28908 19-595): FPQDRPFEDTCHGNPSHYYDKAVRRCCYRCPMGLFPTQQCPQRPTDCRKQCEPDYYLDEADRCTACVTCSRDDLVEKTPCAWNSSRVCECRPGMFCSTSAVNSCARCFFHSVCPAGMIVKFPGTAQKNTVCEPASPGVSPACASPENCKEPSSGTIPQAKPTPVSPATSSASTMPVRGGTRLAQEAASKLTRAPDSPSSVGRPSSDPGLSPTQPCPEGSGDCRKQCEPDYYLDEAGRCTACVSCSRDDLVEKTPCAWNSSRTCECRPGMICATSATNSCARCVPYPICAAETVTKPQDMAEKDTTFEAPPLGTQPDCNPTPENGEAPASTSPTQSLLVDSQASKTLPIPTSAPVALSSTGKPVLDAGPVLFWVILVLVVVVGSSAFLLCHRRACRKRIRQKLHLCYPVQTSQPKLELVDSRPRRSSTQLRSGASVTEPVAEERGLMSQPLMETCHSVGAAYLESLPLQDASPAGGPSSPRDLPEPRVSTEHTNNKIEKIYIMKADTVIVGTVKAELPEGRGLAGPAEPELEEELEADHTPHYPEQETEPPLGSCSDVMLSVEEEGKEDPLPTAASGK

“anti-mouse CD30 monoclonal antibody YMSM636.4.10 (Serotec Ltd, Oxford UK)” gave an apoptosis of human peripheral blood eosinophils after 4 hours, antibody immobilized at 10 µg/ml of 30%.

The substance “mouse anti-human CD30 monoclonal antibody Ber-H8 (PharMingen, San Diego, Calif.)” had an apoptosis of human peripheral blood eosinophils (FITC-Annexin V, flow cytometry), antibody immobilized at 0.01 µg/ml, 4 hours of 7.8%; an apoptosis of human peripheral blood eosinophils (FITC-Annexin V, flow cytometry), antibody immobilized at 0.1 µg/ml, 4 hours of 11.4%; an apoptosis of human peripheral blood eosinophils (FITC-Annexin V, flow cytometry), antibody immobilized at 1 µg/ml, 4 hours of 44.8%; an apoptosis of human peripheral blood eosinophils (FITC-Annexin V, flow cytometry), antibody immobilized at 10 µg/ml, 4 hours of 71.9%. Further, the apoptosis of human peripheral blood eosinophils after 1 hour, antibody immobilized at 10 µg/ml came to 50%; the apoptosis of human peripheral blood eosinophils after 1 hour, antibody immobilized at 10 µg/ml (comparison with anti-Fas CH-11) amounted to 50%; the apoptosis of human peripheral blood eosinophils after 4 hours, antibody immobilized at 10 µg/ml was found to be 70%; the apoptosis of human peripheral blood eosinophils after 4 hours, antibody immobilized at 10 µg/ml (comparison with anti-Fas CH-11) came out at 70%. The apoptosis of human peripheral blood eosinophils after 4 hours, antibody immobilized on polystyrene microbeads is 44%.

In the case of “mouse anti-human CD30 monoclonal antibody HRS-4 (Immunotech, Marseilles, France)”, the apoptosis of human peripheral blood eosinophils (FITC-Annexin V, flow cytometry), antibody immobilized at 1 µg/ml, 4 hours turned out to be 16.3%; the apoptosis of human peripheral blood eosinophils (FITC-Annexin V, flow cytometry), antibody immobilized at 10 µg/ml, 4 hours worked out at 78.8%; the apoptosis of human peripheral blood eosinophils after 1 hour, antibody immobilized at 10 µg/ml turned out to be 50%; the apoptosis of human peripheral blood eosinophils after 1 hour, antibody immobilized at 10 µg/ml (comparison with anti-Fas CH-11) came out at 50%. This substance came in with an apoptosis of human peripheral blood eosinophils after 4 hours, antibody immobilized at 10 µg/ml of 70%; an apoptosis of human peripheral blood eosinophils after 4 hours, antibody immobilized at 10 µg/ml (comparison with anti-Fas CH-11) of 70%; an apoptosis of human peripheral blood eosinophils after 4 hours, antibody immobilized on polystyrene microbeads of 27.9%.

As to “recombinant mouse CD30 ligand (R&D Systems Inc. Minneapolis, USA) (from UniProt P32972 68-239)”, the apoptosis of human peripheral blood eosinophils after 4 hours, ligand immobilized at 10 µg/ml was 28% and the apoptosis of human peripheral blood eosinophils after 4 hours, ligand immobilized at 100 µg/ml came to 35%.

(Values after patent publication US20040156847A1.)
